US20120122128A1 (ALLERGAN, published 2012)

Biological target: T1, SNAP-25206 uncleaved substrate in PC12 cells (rat (PC12 cell line), UniProt P60881 1-206, limits assumed)
T1 construct: also called uncleaved SNAP-25206 substrate; uncleaved SNAP-25
Test: immunocytochemistry of PC12 cells +/- GFP-BoNT/A-LC, ascites 1:10

T1 sequence (P60881 whole entry): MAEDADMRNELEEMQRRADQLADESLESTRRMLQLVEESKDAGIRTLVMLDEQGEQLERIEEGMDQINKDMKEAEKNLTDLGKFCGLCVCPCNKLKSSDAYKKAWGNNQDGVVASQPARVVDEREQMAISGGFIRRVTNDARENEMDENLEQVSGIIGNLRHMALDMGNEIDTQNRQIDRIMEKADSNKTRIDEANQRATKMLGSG

B1: α-SNAP-25 monoclonal antibody 3C1A5 (antibody, V domains shown)
VH: VKLQESGAELVKPGASVKISCKASGYTFTDHSIHWVKQKPGQGLEWIGYLFPGNGNFEYNEKFKGKATLTADKSSSTVYMYLNSLTSEDSAVYFCKRMGYWGQGTTVTVSS
VL: DIKMTQSPSSMYASLGERVTITCKASQDIKSYLSWYQQKPWKSPKTLIYYATSLADGVPSRFSGSGSGQDYSLTISSLESDDTATYYCLQHGESPFTFGSGTKLEIKR
B1: no binding.
